# Experiments:
# [1] = target: FLAG-huBUB3 protein fusion (plasmid p322-1)
# [2] = target: huBUB3 protein (untagged; expression plasmid p291-2, ~2.7 kb variant)
# Sequence of huBUB3 protein (untagged; expression plasmid p291-2, ~2.7 kb variant) (chain, as listed by the source mutant): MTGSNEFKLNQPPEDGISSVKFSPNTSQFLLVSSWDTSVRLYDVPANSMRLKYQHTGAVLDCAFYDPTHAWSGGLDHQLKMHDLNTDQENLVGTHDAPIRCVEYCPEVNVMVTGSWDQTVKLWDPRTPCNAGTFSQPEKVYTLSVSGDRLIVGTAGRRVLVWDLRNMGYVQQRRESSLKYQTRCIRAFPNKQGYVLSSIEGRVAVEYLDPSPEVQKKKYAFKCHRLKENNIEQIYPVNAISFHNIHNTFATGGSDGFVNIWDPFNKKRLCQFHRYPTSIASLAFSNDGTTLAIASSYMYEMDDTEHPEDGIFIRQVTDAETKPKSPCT
# Sequence of FLAG-huBUB3 protein fusion (plasmid p322-1) (chain, as listed by the source): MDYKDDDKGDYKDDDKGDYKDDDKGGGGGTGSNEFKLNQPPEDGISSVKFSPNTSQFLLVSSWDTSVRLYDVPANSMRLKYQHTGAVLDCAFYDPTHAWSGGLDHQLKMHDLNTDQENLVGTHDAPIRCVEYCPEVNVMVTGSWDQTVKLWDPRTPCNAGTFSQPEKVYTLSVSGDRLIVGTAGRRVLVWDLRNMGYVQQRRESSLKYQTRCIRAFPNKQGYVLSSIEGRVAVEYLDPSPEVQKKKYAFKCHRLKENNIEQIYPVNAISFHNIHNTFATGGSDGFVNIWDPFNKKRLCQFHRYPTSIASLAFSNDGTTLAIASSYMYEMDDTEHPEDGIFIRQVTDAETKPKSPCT
Protein,in vitro kinase activity towards test proteins (PHAS-I),phosphorylation in kinase reactions [1],huBUB1 auto-phosphorylation [2],phosphorylation in kinase reactions [2]
huBUB1 protein (plasmid p337-50) (protein) MDTPENVLQMLEAHMQSYKGNDPLGEWERYIQWVEENFPENKEYLITLLEHLMKEFLDKKKYHNDPRFISYCLKFAEYNSDLHQFFEFLYNHGIGTLSSPLYIAWAGHLEAQGELQHASAVLQRGIQNQAEPREFLQQQYRLFQTRLTETHLPAQARTSEPLHNVQVLNQMITSKSNPGNNMACISKNQGSELSGVISSACDKESNMERRVITISKSEYSVHSSLASKVDVEQVVMYCKEKLIRGESEFSFEELRAQKYNQRRKHEQWVNEDRHYMKRKEANAFEEQLLKQKMDELHKKLHQVVETSHEDLPASQERSEVNPARMGPSVGSQQELRAPCLPVTYQQTPVNMEKNPREAPPVVPPLANAISAALVSPATSQSIAPPVPLKAQTVTDSMFAVASKDAGCVNKSTHEFKPQSGAEIKEGCETHKVANTSSFHTTPNTSLGMVQATPSKVQPSPTVHTKEALGFIMNMFQAPTLPDISDDKDEWQSLDQNEDAFEAQFQKNVRSSGAWGVNKIISSLSSAFHVFEDGNKENYGLPQPKNKPTGARTFGERSVSRLPSKPKEEVPHAEEFLDDSTVWGIRCNKTLAPSPKSPGDFTSAAQLASTPFHKLPVESVHILEDKENVVAKQCTQATLDSCEENMVVPSRDGKFSPIQEKSPKQALSSHMYSASLLRLSQPAAGGVLTCEAELGVEACRLTDTDAAIAEDPPDAIAGLQAEWMQMSSLGTVDAPNFIVGNPWDDKLIFKLLSGLSKPVSSYPNTFEWQCKLPAIKPKTEFQLGSKLVYVHHLLGEGAFAQVYEATQGDLNDAKNKQKFVLKVQKPANPWEFYIGTQLMERLKPSMQHMFMKFYSAHLFQNGSVLVGELYSYGTLLNAINLYKNTPEKVMPQGLVISFAMRMLYMIEQVHDCEIIHGDIKPDNFILGNGFLEQDDEDDLSAGLALIDLGQSIDMKLFPKGTIFTAKCETSGFQCVEMLSNKPWNYQIDYFGVAATVYCMLFGTYMKVKNEGGECKPEGLFRRLPHLDMWNEFFHVMLNIPDCHHLPSLDLLRQKLKKVFQQHYTNKIRALRNRLIVLLLECKRSRK,identified PHAS-I as an in vitro substrate of the huBUB1 kinase,,,
HA-huBUB1 (protein) MDTPENVLQMLEAHMQSYKGNDPLGEWERYIQWVEENFPENKEYLITLLEHLMKEFLDKKKYHNDPRFISYCLKFAEYNSDLHQFFEFLYNHGIGTLSSPLYIAWAGHLEAQGELQHASAVLQRGIQNQAEPREFLQQQYRLFQTRLTETHLPAQARTSEPLHNVQVLNQMITSKSNPGNNMACISKNQGSELSGVISSACDKESNMERRVITISKSEYSVHSSLASKVDVEQVVMYCKEKLIRGESEFSFEELRAQKYNQRRKHEQWVNEDRHYMKRKEANAFEEQLLKQKMDELHKKLHQVVETSHEDLPASQERSEVNPARMGPSVGSQQELRAPCLPVTYQQTPVNMEKNPREAPPVVPPLANAISAALVSPATSQSIAPPVPLKAQTVTDSMFAVASKDAGCVNKSTHEFKPQSGAEIKEGCETHKVANTSSFHTTPNTSLGMVQATPSKVQPSPTVHTKEALGFIMNMFQAPTLPDISDDKDEWQSLDQNEDAFEAQFQKNVRSSGAWGVNKIISSLSSAFHVFEDGNKENYGLPQPKNKPTGARTFGERSVSRLPSKPKEEVPHAEEFLDDSTVWGIRCNKTLAPSPKSPGDFTSAAQLASTPFHKLPVESVHILEDKENVVAKQCTQATLDSCEENMVVPSRDGKFSPIQEKSPKQALSSHMYSASLLRLSQPAAGGVLTCEAELGVEACRLTDTDAAIAEDPPDAIAGLQAEWMQMSSLGTVDAPNFIVGNPWDDKLIFKLLSGLSKPVSSYPNTFEWQCKLPAIKPKTEFQLGSKLVYVHHLLGEGAFAQVYEATQGDLNDAKNKQKFVLKVQKPANPWEFYIGTQLMERLKPSMQHMFMKFYSAHLFQNGSVLVGELYSYGTLLNAINLYKNTPEKVMPQGLVISFAMRMLYMIEQVHDCEIIHGDIKPDNFILGNGFLEQDDEDDLSAGLALIDLGQSIDMKLFPKGTIFTAKCETSGFQCVEMLSNKPWNYQIDYFGVAATVYCMLFGTYMKVKNEGGECKPEGLFRRLPHLDMWNEFFHVMLNIPDCHHLPSLDLLRQKLKKVFQQHYTNKIRALRNRLIVLLLECKRSRK,,only HA-huBUB1 auto-phosphorylation was observed in kinase reactions containing these proteins,did not reproducibly stimulate or inhibit huBUB1 auto-phosphorylation,only HA-huBUB1 auto-phosphorylation was observed in kinase reactions containing these proteins

# Reference: patent US20020160403
